We go through 1 molecule from paper PMC6972895.

The experiment concerns the target Chaperonin-containing TCP-1 (CCT) oligomeric complex (human (endogenous in T47D)) (UniProt P17987). Briefly: native gel or EMSA; native PAGE of T47D CCT2-FLAG cell lysates; blotted for FLAG, CCT2 and CCT3; oligomeric complex against free monomer. In general terms: Mobility shift assays separate free from complexed probe on a gel.

B1: CCT2-FLAG (FLAG-tagged CCT2, FLAG tag on the C-terminal of CCT2) (natural protein)
chain: MASLSLAPVNIFKAGADEERAETARLTSFIGAIAIGDLVKSTLGPKGMDKILLSSGRDASLMVTNDGATILKNIGVDNPAAKVLVDMSRVQDDEVGDGTTSVTVLAAELLREAESLIAKKIHPQTIIAGWREATKAAREALLSSAVDHGSDEVKFRQDLMNIAGTTLSSKLLTHHKDHFTKLAVEAVLRLKGSGNLEAIHIIKKLGGSLADSYLDEGFLLDKKIGVNQPKRIENAKILIANTGMDTDKIKIFGSRVRVDSTAKVAEIEHAEKEKMKEKVERILKHGINCFINRQLIYNYPEQLFGAAGVMAIEHADFAGVERLALVTGGEIASTFDHPELVKLGSCKLIEEVMIGEDKLIHFSGVALGEACTIVLRGATQQILDEAERSLHDALCVLAQTVKDSRTVYGGGCSEMLMAHAVTQLANRTPGKEAVAMESYAKALRMLPTIIADNAGYDSADLVAQLRAAHSEGNTTAGLDMREGTIGDMAILGITESFQVKRQVLLSAAEAAEVILRVDNIIKAAPRKRVPDHHPC
The molecule B1 came in with a percent of the total FLAG signal as free monomer of 24%.
